Measured values from paper doi:10.1101/2025.06.24.661325.

Target: M. tuberculosis MmpL5 Δ494-688 with C-terminal GFP-FLAG tag (M. tuberculosis) (UniProt P9WJV1)
Assay: cryo-EM structure

With “M. tuberculosis MmpL5 Δ494-688 with C-terminal GFP-FLAG tag (from UniProt P9WJV1 1-964) (natural protein)” the stoichiometry N was 3.
